From US20030119023, “Nucleic acid binding polypeptides characterized by flexible linkers connected nucleic acid binding modules” (published 2003) come the findings set out here.

The target in data set [1] is 2x3F pep11-9 (artificial). The experiment in a line: in vitro fluorescence ELISA, values in figure only. The note with it: label: biotin. The protocol: (§1) Incubations are performed at room temperature for 40 minutes. Black streptavidin-coated wells are blocked with 4% marvel for 1 hour. Binding reactions are added to the streptavidin-coated wells and incubated for a further 40 minutes at room temperature. Wells are washed 5 times in 100 μl wash buffer (1×PBS (pH 7.0), […] ZnCl₂, 0.01 mg/ml BSA, and 0.5% Tween 20), and finally 50 μl QuantaBlu peroxidase substrate solution (Pierce) is added to detect bound HA-tagged zinc finger peptide. ELISA signals are read in a SPECTRAmax GeminiXS spectrophotometer (Molecular Devices) and analysed using SOFTmax Pro 3.1.2 (Molecular Devices).
2x3F pep11-9 (artificial), sequence (chain, as listed by the source): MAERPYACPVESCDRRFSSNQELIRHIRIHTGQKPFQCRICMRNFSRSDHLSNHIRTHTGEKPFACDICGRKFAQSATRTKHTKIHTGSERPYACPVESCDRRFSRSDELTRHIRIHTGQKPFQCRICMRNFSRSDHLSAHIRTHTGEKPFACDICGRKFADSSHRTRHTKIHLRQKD
(§2) To compare the specificity of the 2x3F pep11-9 and 3x2F pep11-9 peptides, samples from the same translation reaction are assayed against each of the binding sites above. The ELISA signals obtained from each assay are then normalised relative to the maximum signal obtained for that peptide. (In this way the absolute amount of either peptide produced by the in vitro transcription/translation system is insignificant).
In general terms: In an ELISA, binding on a coated surface is turned into a signal by an enzyme label.

For data set [2], the target named is 3x2F pep11-9 (artificial). The experiment in a line: in vitro fluorescence ELISA, values in figure only. The note with it: label: biotin. Here is the method:
as §1, §2

Data set [3] addresses GAC-F4-ZIF (artificial). The data set can be described thus: EMSA; 11 bp gap spanned without significant loss. The note with it: label: 32P. In general terms: Mobility shift assays separate free from complexed probe on a gel.

3x2F pep11-9 (artificial), sequence (chain, as listed by the source): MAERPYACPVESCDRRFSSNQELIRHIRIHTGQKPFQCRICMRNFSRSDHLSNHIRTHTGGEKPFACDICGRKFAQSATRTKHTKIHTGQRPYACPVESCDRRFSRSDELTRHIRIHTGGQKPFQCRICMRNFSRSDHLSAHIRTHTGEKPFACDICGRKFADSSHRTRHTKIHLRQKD
GAC-F4-ZIF (artificial), sequence (chain, as listed by the source): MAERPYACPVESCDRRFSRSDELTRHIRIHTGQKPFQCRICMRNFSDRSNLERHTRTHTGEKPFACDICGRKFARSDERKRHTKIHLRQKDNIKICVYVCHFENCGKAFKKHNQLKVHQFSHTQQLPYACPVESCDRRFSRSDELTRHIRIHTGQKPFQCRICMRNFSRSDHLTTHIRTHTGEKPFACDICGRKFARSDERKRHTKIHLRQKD

B1: 11-9 (dsDNA)
DNA 1: GGCCAGGCGGCAGGGGTT
DNA 2: AACCCCTGCCGCCTGGCC
On to B1, for which the binding result in data set [1] and in data set [2] was “binds” throughout.

B2: bsF2 (dsDNA)
DNA 1: GCGTGGGCGGTTAGTACCTGGCGGACGCG
DNA 2: CGCGTCCGCCAGGTACTAACCGCCCACGC
B2: in data set [3], the binding result is “binds”.
